Experiments:
[1] = biological target: Tropoelastin (UniProt P15502); assay: SPR; Biacore T100 or T200, 25 °C, HBS pH 7.4 with 0.05% P20; tropoelastin covalently immobilised on a CM5 chip via amino groups, LOX-PP as analyte; single-cycle kinetics, 2-state model
[2] = biological target: recombinant human propeptide of lysyl oxidase (LOX-PP) (human) (UniProt P28300); assay: SPR; Biacore T100 or T200, 25 °C, HBS pH 7.4 with 0.05% P20; LOX-PP covalently immobilised on a CM5 chip via amino groups, plasminogen as analyte; single-cycle kinetics, 2-state model, n = 2
recombinant human propeptide of lysyl oxidase (LOX-PP) (human), sequence (P28300 22-168 P24L): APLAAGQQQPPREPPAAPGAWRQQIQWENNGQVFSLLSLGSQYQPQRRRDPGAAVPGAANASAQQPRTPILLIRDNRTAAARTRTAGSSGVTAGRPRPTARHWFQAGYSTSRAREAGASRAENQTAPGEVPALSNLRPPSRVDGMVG

Tropoelastin, sequence (P15502 27-786): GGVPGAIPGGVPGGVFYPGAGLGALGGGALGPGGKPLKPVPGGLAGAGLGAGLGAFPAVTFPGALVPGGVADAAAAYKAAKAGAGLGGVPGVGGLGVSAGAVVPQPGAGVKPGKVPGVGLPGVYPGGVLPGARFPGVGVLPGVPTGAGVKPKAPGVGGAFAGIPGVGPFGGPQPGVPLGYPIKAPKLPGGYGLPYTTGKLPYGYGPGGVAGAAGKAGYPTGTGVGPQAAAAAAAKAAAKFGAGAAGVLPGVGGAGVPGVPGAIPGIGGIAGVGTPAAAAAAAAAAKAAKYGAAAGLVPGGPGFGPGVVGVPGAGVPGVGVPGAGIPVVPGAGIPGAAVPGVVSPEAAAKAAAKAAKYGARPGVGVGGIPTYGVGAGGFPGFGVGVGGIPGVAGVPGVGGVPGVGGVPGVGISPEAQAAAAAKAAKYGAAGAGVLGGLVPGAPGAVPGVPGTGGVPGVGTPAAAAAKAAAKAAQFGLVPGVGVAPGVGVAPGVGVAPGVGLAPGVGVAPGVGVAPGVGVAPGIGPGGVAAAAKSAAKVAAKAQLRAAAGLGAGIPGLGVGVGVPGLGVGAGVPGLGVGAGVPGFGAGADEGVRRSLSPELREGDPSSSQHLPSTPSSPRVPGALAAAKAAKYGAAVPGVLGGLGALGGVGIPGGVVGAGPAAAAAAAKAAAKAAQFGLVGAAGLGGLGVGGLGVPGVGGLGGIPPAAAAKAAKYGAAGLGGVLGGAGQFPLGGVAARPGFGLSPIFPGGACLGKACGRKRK

Substance	Kd [1]	ka of the first step (2-state model) [1]	ka of the second step (2-state model) [1]	kd of the first step (2-state model) [1]	kd of the second step (2-state model) [1]	Kd [2]	ka of the first step (2-state model) [2]	ka of the second step (2-state model) [2]	kd of the first step (2-state model) [2]	kd of the second step (2-state model) [2]
recombinant human propeptide of lysyl oxidase (LOX-PP) (from UniProt P28300 22-168) (domain or fragment)	1.39 nM	331 M⁻¹ s⁻¹	0.003 s⁻¹	0.0043 s⁻¹	3.1e-07 s⁻¹	–	–	–	–	–
Plasminogen (natural protein)	–	–	–	–	–	15.8 nM	41700 M⁻¹ s⁻¹	0.00214 s⁻¹	0.00515 s⁻¹	0.000306 s⁻¹

— paper PMC6078952
